The values below are quoted from earlier work in article PMC12336664.

A word on the Kd: it is the constant that tells how readily two partners part at equilibrium.

The data set concerns the target FXa (Homo sapiens) (UniProt P00742).
Chain of UniProt P00742 (P00742 41-179, chain 1 of 2): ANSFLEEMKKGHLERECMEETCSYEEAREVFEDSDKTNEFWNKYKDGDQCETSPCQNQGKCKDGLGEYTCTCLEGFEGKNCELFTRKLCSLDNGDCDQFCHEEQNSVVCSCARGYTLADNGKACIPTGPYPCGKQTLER
Chain of UniProt P00742 (P00742 235-488, chain 2 of 2): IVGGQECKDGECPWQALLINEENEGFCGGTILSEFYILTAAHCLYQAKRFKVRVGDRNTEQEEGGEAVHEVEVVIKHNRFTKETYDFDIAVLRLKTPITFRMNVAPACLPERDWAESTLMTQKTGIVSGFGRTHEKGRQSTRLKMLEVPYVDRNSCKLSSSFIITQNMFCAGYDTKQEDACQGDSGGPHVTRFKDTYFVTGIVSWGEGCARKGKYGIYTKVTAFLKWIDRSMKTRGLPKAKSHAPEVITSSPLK

Turning to TFPIα (from UniProt P10646), the Kd is 0.02 nM.
